Measurements reported in patent US20220249679A1 (MITSUBISHI TANABE PHARMA, published 2022).
Where a chain is given by its changes, count along the chain named. Values joined by “and” are separate entries in the source; they are usually repeats but may differ in a detail not shown here. Equal values may be shown once.

T1: Human CD138-Fc protein (human, UniProt P18827 23-254)
T1 construct: also called hCD138-Fc
T1 sequence: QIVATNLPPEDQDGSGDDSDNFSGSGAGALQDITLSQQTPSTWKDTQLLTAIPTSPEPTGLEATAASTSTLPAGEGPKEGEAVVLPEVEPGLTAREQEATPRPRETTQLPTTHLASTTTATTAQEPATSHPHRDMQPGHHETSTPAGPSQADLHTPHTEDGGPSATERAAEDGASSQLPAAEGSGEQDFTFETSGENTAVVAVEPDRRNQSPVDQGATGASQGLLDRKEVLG

T2: hCD138 peptide AGEGPKEGEAVVLP (human)
T2 construct: Portion of the linear CD138 peptide used for immunization; also the peptide in the crystal structure; also called syndecan-1 peptide
T2 peptide: AGEGPKEGEAVVLP

T3: Human syndecan-1 (CD138) on the cell surface (human, UniProt P18827 23-310)
T3 construct: Endogenous on H929, KMS-11 and RT112/84 cells or transfected into Expi293 cells; also called human CD138; hCD138
T3 sequence: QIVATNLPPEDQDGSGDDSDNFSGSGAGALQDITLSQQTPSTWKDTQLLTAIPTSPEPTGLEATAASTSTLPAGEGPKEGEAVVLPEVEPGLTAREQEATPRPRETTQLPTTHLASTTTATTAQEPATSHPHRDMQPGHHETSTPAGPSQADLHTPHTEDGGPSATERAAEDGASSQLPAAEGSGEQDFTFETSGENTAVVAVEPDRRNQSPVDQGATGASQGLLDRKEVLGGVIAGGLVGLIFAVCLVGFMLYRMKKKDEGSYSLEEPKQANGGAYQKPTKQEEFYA

T4: Mouse CD138 (ELISA binding assay, data not shown) (mouse, UniProt P18828 23-255, limits assumed)
T4 construct: Construct used in the ELISA is not described
T4 sequence: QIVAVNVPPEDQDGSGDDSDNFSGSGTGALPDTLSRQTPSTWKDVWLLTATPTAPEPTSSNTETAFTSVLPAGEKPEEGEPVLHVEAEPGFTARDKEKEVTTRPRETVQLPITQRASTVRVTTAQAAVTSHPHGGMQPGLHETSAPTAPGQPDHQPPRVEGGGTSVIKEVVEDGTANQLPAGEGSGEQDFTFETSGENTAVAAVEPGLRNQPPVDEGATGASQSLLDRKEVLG

T5: Mouse CD138 His (mouse, UniProt P18828 23-255)
T5 construct: also called mCD138
T5 sequence: T4 sequence

T6: Human CD138 His (human, UniProt P18827 23-254)
T6 construct: also called hCD138
T6 sequence: T1 sequence

T7: hCD138 (ELISA of Table 29) (human, UniProt P18827 23-254, limits assumed)
T7 construct: also called human CD138
T7 sequence: T1 sequence

B1: F6 ckf-rep (antibody, V domains shown)
VH: QVQLVQSGAEVVKPGASVKLSCKASGYTFTSYYLYWVKKAPGQGLDWIGEIYPRSGGTNINEKFLSRVTLTADTSTSTAYLELSSLTSEDTAVYYCTRSLLYWGQGTTLTVSS
VL: DVVMTQSPLSLSVTLGQPASISCKSSQSLLASDGKTYLNWLQQRPGQSPRRLIYLVSKLDSGVPNRFSGSGSGTDFTLQISRVEAEDVGLYYCWQGAHFPFTFGSGTKLEIKR
notes: Humanized F12P16F6 expressed as whole antibody with human constant regions (kappa light chain)
B2: F6 cks-rep (hF6) (antibody, human IgG1, kappa, V domains shown)
VH: B1 VH
VL: B1 VL with S7T, L15P, Q42L, R50K
notes: Humanized IgG1/kappa antibody; also called hF6 (no Fynomer)
B3: F6 aks-rep (antibody, V domains shown)
VH: B1 VH with I60Y, N61A, L65Q, S66G
VL: B1 VL with S7T, L15P, Q42L, R50K
notes: as for B1
B4: F6 cka-rep (antibody, V domains shown)
VH: B1 VH
VL: B1 VL with S7T, L15P, Q42L, R50K, W94M, S105G, L109V
notes: as for B1
B5: F6 akf-rep (antibody, V domains shown)
VH: B1 VH with I60Y, N61A, L65Q, S66G
VL: B1 VL
notes: as for B1
B6: F6 f1ka-rep (antibody, V domains shown)
VH: B1 VH with V5Q, L81M, E82D
VL: B1 VL with S7T, L15P, Q42L, R50K, W94M, S105G, L109V
notes: as for B1
B7: F6 f1ks-rep (antibody, V domains shown)
VH: B1 VH with V5Q, L81M, E82D
VL: B1 VL with S7T, L15P, Q42L, R50K
notes: as for B1
B8: F6 f2kf-rep (antibody, V domains shown)
VH: B1 VH with V5Q, L70I, T74E, A79V, L81M, E82Q, T91S
VL: B1 VL
notes: as for B1
B9: F6 f1kf-rep (antibody, V domains shown)
VH: B1 VH with V5Q, L81M, E82D
VL: B1 VL
notes: as for B1
B10: F13P30A7 (antibody, V domains shown)
VH: EVQLVESGGGLVQPKGSLKLSCAASGFTFNTYAMNWVRQAPGKGLEWIARIRSKSNNYATYYADSVKDRFTISRDDSQSLLYLQMNNLKTEDTAIFYCVTDYGYVYFDAWGAGTTVTVSS
VL: NIIMTQSPKSMAMSVGERVTLSCKASENVGNYVSWYQQKPEQSPKLLIYGASYRYTGVPDRFTGSGSGTDFTLTISSVQAEDLADYHCGQSSRYPLTFGAGTKLELKR
notes: Murine IgG purified from hybridoma supernatant
B11: F11AP11E5 (antibody, V domains shown)
VH: QVQLQQSGAELVKPGASVKLSCKASGYTFTNYYMYWVKQRPGQGLEWIGEINPGNGGTNFNEKFKNKATLTVDKSSSTAYMQLSSLTSEDSAVYYCTTRFAYWGQGTLVIVSA
VL: DVVMTQTPLSLSVTIGQPASISCKSGQSLLYSNGKTYLTWLQQRPGQAPKLLMYQVSKLDPGIPDRFSGSGSETDFTLKISRVEAEDLGVYYCLQNTYYPHTFGAGTKLELKR
notes: as for B10
B12: F12P7G11 (antibody, V domains shown)
VH: QVQLQQSGAELARPGASVKLSCKASGYTFSSHWMQWVKQRPGQGLEWIGAIYPGDGDTRFTQKFKGKATLTADKSSNTAYMQLSSLASEDSAVYYCARGIYYDRSRAMDYWGQGTSVTVSS
VL: QIVLSQSPAILSASPGEKVTMTCRASSSVNYMHWYQQKPGSSPKHWIYATSYLASGVPARFSGSGSGTSYSLTISRVEAEDAATYYCQQWSSDPLTFGAGTKLELKR
notes: as for B10
B13: hF6-HC-G7 (bispecific antibody, human IgG1, kappa)
heavy: not shown
light: DVVMTQTPLSLSVTPGQPASISCKSSQSLLASDGKTYLNWLLQRPGQSPKRLIYLVSKLDSGVPNRFSGSGSGTDFTLQISRVEAEDVGLYYCWQGAHFPFTFGSGTKLEIKRTVAAPSVFIFPPSDEQLKSGTASVVCLLNNFYPREAKVQWKVDNALQSGNSQESVTEQDSKDSTYSLSSTLTLSKADYEKHKVYACEVTHQGLSSPVTKSFNRGEC
notes: IgG1/kappa

Molecular target: T1, Human CD138-Fc protein
Assay: ELISA, plate-coated human CD138-Fc
Description: (§1) A CD138 binding ELISA was performed with 9 representative humanized antibodies to determine binding to portion of the linear CD138 peptide used for immunization (FIG. 7). […] Coated plates were incubated with various dilutions of each of the 9 representative antibodies overnight and binding was detected with a goat anti-human IgG (H+L)-HRP. EC50s were determined using four parameter fit curves (Table 21). An ELISA was also performed to detect binding to plate-coated human CD138-Fc protein (Table 21).

Binder | EC50 [nM]
B1 | 0.535
B2 | 0.197
B3 | 0.969
B4 | 0.855
B5 | 0.879
B6 | 0.433
B7 | 0.762
B8 | 0.405
B9 | 0.225

Molecular target: T2, hCD138 peptide AGEGPKEGEAVVLP
Assay: ELISA, plate-coated hCD138 peptide
Description: as §1

Binder | EC50 [nM]
B1 | 0.981
B2 | 0.33
B3 | 1.28
B4 | 1.65
B5 | 1.54
B6 | 0.744
B7 | 1.31
B8 | 0.726
B9 | 0.413

Molecular target: T3, Human syndecan-1 (CD138) on the cell …
Assay: summary table; repeats the EC50 (nM) of Table 20, unit not given
Description: (§2) Analysis of cell-surface binding to human CD138 was performed on 9 representative humanized anti-CD138 antibodies by FACS (FIG. 7). […] Two cell lines expressing moderate levels of CD138 were used to test binding; multiple myeloma cell line KMS-11 and bladder cancer line RT112/84. […] EC50s were calculated using four parameter fit curves (Table 20). The constructs were also tested against ARH-77 cells, which are CD138 negative lymphoblasts.

Binder | FACS binding (KMS11)
B1 | 1.64
B2 | 1.2
B3 | 1.36
B4 | 1.3
B5 | 1.09
B6 | 0.83
B7 | 0.97
B8 | 1.81
B9 | 0.94

Molecular target: T4, Mouse CD138 (ELISA binding assay, data …)
Assay: ELISA binding assay

Binder | binding result
B10 | no binding

Molecular target: T5, Mouse CD138 His
Assay: SPR, mouse CD138 His immobilized
Description: (§3) Murine IgGs were purified from the hybridoma supernatants and the IgGs were subject to SPR (surface plasmon resonance) for kinetic binding measurements. Human or mouse CD138 His was immobilized on a GLM chip at […] on a BioRad Proteon. […] KDs were measured using bivalent analyte fit.

Binder | binding result
B11 | no binding (tested: 167 nM)
B12 | no binding (tested: 167 nM)

Molecular target: T3, Human syndecan-1 (CD138) on the cell …
Assay: FACS on RT-112 cells, four parameter fit
Description: as §2

Binder | EC50 [nM]
B1 | 2.09
B2 | 2.2
B3 | 2.13
B4 | 2.44
B5 | 1.88
B6 | 1.39
B7 | 2.73
B8 | 2.46
B9 | 1.93

Molecular target: T6, Human CD138 His
Assay: SPR, summary table
Description: as §3

Binder | Kd [nM]
B10 | 5
B11 | 92
B12 | 9

Molecular target: T3, Human syndecan-1 (CD138) on the cell …
Assay: FACS on KMS-11 cells, four parameter fit
Description: as §2

Binder | EC50 [nM]
B1 | 1.64
B2 | 1.2
B3 | 1.36
B4 | 1.3
B5 | 1.09
B6 | 0.83
B7 | 0.97
B8 | 1.81
B9 | 0.94

Molecular target: T6, Human CD138 His
Assay: SPR (BioRad Proteon), CD138 His immobilized, bivalent analyte fit
Description: as §3

Binder | Kd | koff [s⁻¹] | kon [M⁻¹ s⁻¹]
B10 | 5.32 nM and 5.3 nM | 0.00127 | 238000
B11 | 91.6 nM | 0.0117 | 128000
B12 | 8.66 nM and 8.6 nM | 0.033 | 3.81e+06

Molecular target: T7, hCD138 (ELISA of Table 29)
Assay: hCD138 ELISA

Binder | EC50 [nM]
B2 | 0.56
B13 | 0.55

Molecular target: T1, Human CD138-Fc protein
Assay: summary table; repeats the EC50 (nM) of Table 21, unit not given
Description: as §1

Binder | ELISA CD138 Fc binding
B1 | 0.535
B2 | 0.197
B3 | 0.969
B4 | 0.855
B5 | 0.879
B6 | 0.433
B7 | 0.762
B8 | 0.405
B9 | 0.225
